Test results taken from PMC2745324 (Biochemistry, 2009).
Read-outs that look alike come from different tables or passages of the source.

Tests used:
[1] = biological target: human adenylosuccinate lyase K246E mutant (human) (UniProt P30566)
[2] = biological target: human adenylosuccinate lyase K246E mutant (human) (UniProt P30566); experiment: AUC
SEC = biological target: the molecule itself; experiment: SEC
AUC [3] = biological target: the molecule itself; experiment: AUC
AUC [4] = biological target: the molecule itself; experiment: AUC; remark: listed apart in the source
AUC [5] = biological target: the molecule itself; experiment: AUC; remark: listed apart in the source

Molecule	Vmax of SAMP cleavage at 25 °C [1]	percent as dimer (D-12mer model) [2]	stoichiometry N [2]	stoichiometry N (SEC)	percent as monomer (M-Tet model) (AUC [3])	percent as tetramer (M-Tet model) (AUC [3])	percent as monomer (M-Tet model) (AUC [4])	percent as tetramer (M-Tet model) (AUC [4])	stoichiometry N (AUC [5])
human adenylosuccinate lyase K246E mutant (from UniProt P30566 1-481) (enzyme)	0.23 µmol/min/mg	94%	2	–	–	–	–	–	–
human adenylosuccinate lyase, wild type (enzyme) MAAGGDHGSPDSYRSPLASRYASPEMCFVFSDRYKFRTWRQLWLWLAEAEQTLGLPITDEQIQEMKSNLENIDFKMAAEEEKRLRHDVMAHVHTFGHCCPKAAGIIHLGATSCYVGDNTDLIILRNALDLLLPKLARVISRLADFAKERASLPTLGFTHFQPAQLTTVGKRCCLWIQDLCMDLQNLKRVRDDLRFRGVKGTTGTQASFLQLFEGDDHKVEQLDKMVTEKAGFKRAFIITGQTYTRKVDIEVLSVLASLGASVHKICTDIRLLANLKEMEEPFEKQQIGSSAMPYKRNPMRSERCCSLARHLMTLVMDPLQTASVQWFERTLDDSANRRICLAEAFLTADTILNTLQNISEGLVVYPKVIERRIRQELPFMATENIIMAMVKAGGSRQDCHEKIRVLSQQAASVVKQEGGDNDLIERIQVDAYFSPIHSQLDHLLDPSSFTGRASQQVQRFLEEEVYPLLKPYESVMKVKAE	–	–	–	4	32%	68%	20%	80%	–
human adenylosuccinate lyase L311V mutant (enzyme) MAAGGDHGSPDSYRSPLASRYASPEMCFVFSDRYKFRTWRQLWLWLAEAEQTLGLPITDEQIQEMKSNLENIDFKMAAEEEKRLRHDVMAHVHTFGHCCPKAAGIIHLGATSCYVGDNTDLIILRNALDLLLPKLARVISRLADFAKERASLPTLGFTHFQPAQLTTVGKRCCLWIQDLCMDLQNLKRVRDDLRFRGVKGTTGTQASFLQLFEGDDHKVEQLDKMVTEKAGFKRAFIITGQTYTRKVDIEVLSVLASLGASVHKICTDIRLLANLKEMEEPFEKQQIGSSAMPYKRNPMRSERCCSLARHVMTLVMDPLQTASVQWFERTLDDSANRRICLAEAFLTADTILNTLQNISEGLVVYPKVIERRIRQELPFMATENIIMAMVKAGGSRQDCHEKIRVLSQQAASVVKQEGGDNDLIERIQVDAYFSPIHSQLDHLLDPSSFTGRASQQVQRFLEEEVYPLLKPYESVMKVKAE	–	–	–	4	32%	68%	40%	60%	–
human adenylosuccinate lyase R194C mutant (enzyme) MAAGGDHGSPDSYRSPLASRYASPEMCFVFSDRYKFRTWRQLWLWLAEAEQTLGLPITDEQIQEMKSNLENIDFKMAAEEEKRLRHDVMAHVHTFGHCCPKAAGIIHLGATSCYVGDNTDLIILRNALDLLLPKLARVISRLADFAKERASLPTLGFTHFQPAQLTTVGKRCCLWIQDLCMDLQNLKRVRDDLCFRGVKGTTGTQASFLQLFEGDDHKVEQLDKMVTEKAGFKRAFIITGQTYTRKVDIEVLSVLASLGASVHKICTDIRLLANLKEMEEPFEKQQIGSSAMPYKRNPMRSERCCSLARHLMTLVMDPLQTASVQWFERTLDDSANRRICLAEAFLTADTILNTLQNISEGLVVYPKVIERRIRQELPFMATENIIMAMVKAGGSRQDCHEKIRVLSQQAASVVKQEGGDNDLIERIQVDAYFSPIHSQLDHLLDPSSFTGRASQQVQRFLEEEVYPLLKPYESVMKVKAE	–	–	–	4	33%	67%	37%	63%	–
human adenylosuccinate lyase R396C mutant (enzyme) MAAGGDHGSPDSYRSPLASRYASPEMCFVFSDRYKFRTWRQLWLWLAEAEQTLGLPITDEQIQEMKSNLENIDFKMAAEEEKRLRHDVMAHVHTFGHCCPKAAGIIHLGATSCYVGDNTDLIILRNALDLLLPKLARVISRLADFAKERASLPTLGFTHFQPAQLTTVGKRCCLWIQDLCMDLQNLKRVRDDLRFRGVKGTTGTQASFLQLFEGDDHKVEQLDKMVTEKAGFKRAFIITGQTYTRKVDIEVLSVLASLGASVHKICTDIRLLANLKEMEEPFEKQQIGSSAMPYKRNPMRSERCCSLARHLMTLVMDPLQTASVQWFERTLDDSANRRICLAEAFLTADTILNTLQNISEGLVVYPKVIERRIRQELPFMATENIIMAMVKAGGSCQDCHEKIRVLSQQAASVVKQEGGDNDLIERIQVDAYFSPIHSQLDHLLDPSSFTGRASQQVQRFLEEEVYPLLKPYESVMKVKAE	–	–	–	–	40%	60%	32%	68%	4
human adenylosuccinate lyase R396H mutant (enzyme) MAAGGDHGSPDSYRSPLASRYASPEMCFVFSDRYKFRTWRQLWLWLAEAEQTLGLPITDEQIQEMKSNLENIDFKMAAEEEKRLRHDVMAHVHTFGHCCPKAAGIIHLGATSCYVGDNTDLIILRNALDLLLPKLARVISRLADFAKERASLPTLGFTHFQPAQLTTVGKRCCLWIQDLCMDLQNLKRVRDDLRFRGVKGTTGTQASFLQLFEGDDHKVEQLDKMVTEKAGFKRAFIITGQTYTRKVDIEVLSVLASLGASVHKICTDIRLLANLKEMEEPFEKQQIGSSAMPYKRNPMRSERCCSLARHLMTLVMDPLQTASVQWFERTLDDSANRRICLAEAFLTADTILNTLQNISEGLVVYPKVIERRIRQELPFMATENIIMAMVKAGGSHQDCHEKIRVLSQQAASVVKQEGGDNDLIERIQVDAYFSPIHSQLDHLLDPSSFTGRASQQVQRFLEEEVYPLLKPYESVMKVKAE	–	–	–	–	34%	66%	–	–	4
